The data set has as its target EZH2 (UniProt Q61188). As to the kind of experiment: filter. The following applies: negative control RNA.

As a reminder, the Kd is the equilibrium constant for the complex coming apart. Higher therefore signals weaker binding.

Sequence of EZH2 (Q61188 whole entry): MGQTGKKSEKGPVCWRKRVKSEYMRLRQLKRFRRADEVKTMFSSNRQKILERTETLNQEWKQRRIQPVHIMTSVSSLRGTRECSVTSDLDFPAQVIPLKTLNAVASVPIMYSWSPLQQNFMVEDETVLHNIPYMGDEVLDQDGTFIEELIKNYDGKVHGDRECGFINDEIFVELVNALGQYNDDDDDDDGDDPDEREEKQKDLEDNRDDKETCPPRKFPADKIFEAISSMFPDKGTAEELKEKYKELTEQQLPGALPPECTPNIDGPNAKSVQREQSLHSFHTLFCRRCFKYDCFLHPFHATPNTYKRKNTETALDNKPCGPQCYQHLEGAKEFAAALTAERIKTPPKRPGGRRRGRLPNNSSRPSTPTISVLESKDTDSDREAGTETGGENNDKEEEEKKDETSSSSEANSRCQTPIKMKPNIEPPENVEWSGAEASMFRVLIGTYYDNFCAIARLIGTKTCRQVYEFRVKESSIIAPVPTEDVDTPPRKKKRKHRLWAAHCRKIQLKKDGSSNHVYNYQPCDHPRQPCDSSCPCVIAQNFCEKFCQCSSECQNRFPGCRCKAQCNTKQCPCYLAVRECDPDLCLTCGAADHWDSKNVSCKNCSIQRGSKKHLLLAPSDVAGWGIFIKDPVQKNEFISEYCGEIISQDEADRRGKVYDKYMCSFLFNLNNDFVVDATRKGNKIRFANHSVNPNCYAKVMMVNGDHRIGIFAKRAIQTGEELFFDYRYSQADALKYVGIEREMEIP

As for P4P6 RNA, the dissociation constant Kd was greater than 3 µM.

Source of the values: patent publication US20190144863.
